Assay results published in patent EP4682166A1 (Guangzhou Enmai Biotechnology Co., Ltd, dated 2026).

T1: human NMI (N-myc Interacting protein) (human, UniProt Q13287 1-307, limits assumed)
T1 construct: Immunogen and ELISA coating antigen; also called hNMI; antigen 1
T1 sequence (looked up): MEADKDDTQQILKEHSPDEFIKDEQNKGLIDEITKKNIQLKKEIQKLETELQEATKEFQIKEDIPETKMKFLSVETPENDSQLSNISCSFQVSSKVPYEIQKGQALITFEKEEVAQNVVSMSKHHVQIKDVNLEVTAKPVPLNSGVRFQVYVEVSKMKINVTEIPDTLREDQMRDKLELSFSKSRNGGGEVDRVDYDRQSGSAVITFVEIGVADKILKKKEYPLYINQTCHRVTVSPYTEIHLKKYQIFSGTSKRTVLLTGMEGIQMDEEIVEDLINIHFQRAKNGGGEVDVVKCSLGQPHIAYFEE

B1: 98G10 (antibody, V domains shown)
VH: QEQLEESGGDLVKPEGSLTLTCTASGFSFSASYWICWVRQAPGKGLEWIACIYGGSSGSAYYASWAKGRFTISKTSSTTVTLQMTSLTAADTATYFCARAGYYNYGSAGDIYPSSFKLWGPGTLVTVSS
VL: DIVMTQTPASVEAAVGGTVTINCQASQSISTALAWYQQKPGQPPKLLIYTASKVASGVPSRFSGSGSGTQFTLTISDLECADAATYYCQNYYYSSSSITFGGGTEVVVK
notes: Rabbit monoclonal antibody; also called 98G10-1; 98G10-1-biotin (biotin-labelled form)
B2: 94C4 (antibody, V domains shown)
VH: QSLEESGGGLVQPEGSLTLTCKASGFDFSSNAMCWVRQAPGKGLEWIACISSASSGSSGSTYYASWAKGRFTISKTSSTTVTLQMTSLTAADMATYFCARDGYDLWGPGTLVTVSS
VL: QVLTQTPSSVSAAVGGTVTISCQSSPSVYNNYLSWFQQKPGQSPKLLIYRVSTLASGVPSRFSGSGSGTQFTLTISGVQCDDAATYYCAGGYDSASDTYVFGGGTEVVVK
notes: Rabbit monoclonal antibody; also called 94C4-1; 94C4-1-biotin (biotin-labelled form)

What was measured:
[1] = target: T1, human NMI (N-myc Interacting protein); experiment: I-ELISA, hNMI coated 1 ug/mL; antibody 1250 ng/mL
[2] = target: T1, human NMI (N-myc Interacting protein); experiment: I-ELISA, hNMI coated; upper end of the group's range, tied to 98G10 by Table 17
[3] = target: T1, human NMI (N-myc Interacting protein); experiment: indirect ELISA, human NMI coated; supernatant 1/3
[4] = target: T1, human NMI (N-myc Interacting protein); experiment: indirect ELISA, human NMI coated; supernatant 1/729
[5] = target: T1, human NMI (N-myc Interacting protein); experiment: I-ELISA, hNMI coated 1 ug/mL; antibody 19.53125 ng/mL
[6] = target: T1, human NMI (N-myc Interacting protein); experiment: I-ELISA, hNMI coated 1 ug/mL; antibody 312.5 ng/mL
[7] = target: T1, human NMI (N-myc Interacting protein); experiment: indirect ELISA, human NMI coated; supernatant 1/81
[8] = target: T1, human NMI (N-myc Interacting protein); experiment: indirect ELISA, human NMI coated; supernatant 1/19683
[9] = target: T1, human NMI (N-myc Interacting protein); experiment: indirect ELISA, human NMI coated; supernatant 1/27
[10] = target: T1, human NMI (N-myc Interacting protein); experiment: I-ELISA, hNMI coated 1 ug/mL; antibody 78.125 ng/mL
[11] = target: T1, human NMI (N-myc Interacting protein); experiment: I-ELISA, hNMI coated 1 ug/mL; antibody 1.2207031 ng/mL
[12] = target: T1, human NMI (N-myc Interacting protein); experiment: indirect ELISA, human NMI coated; supernatant 1/59049
[13] = target: T1, human NMI (N-myc Interacting protein); experiment: indirect ELISA, human NMI coated; supernatant 1/243
[14] = target: T1, human NMI (N-myc Interacting protein); experiment: indirect ELISA, human NMI coated; supernatant 1/6561
[15] = target: T1, human NMI (N-myc Interacting protein); experiment: indirect ELISA, human NMI coated; supernatant dilution series
[16] = target: T1, human NMI (N-myc Interacting protein); experiment: indirect ELISA, human NMI coated; supernatant undiluted
[17] = target: T1, human NMI (N-myc Interacting protein); experiment: indirect ELISA, human NMI coated; supernatant 1/9
[18] = target: T1, human NMI (N-myc Interacting protein); experiment: I-ELISA, hNMI coated 1 ug/mL; antibody 4.8828125 ng/mL
[19] = target: T1, human NMI (N-myc Interacting protein); experiment: I-ELISA, hNMI coated 1 ug/mL; antibody 9.765625 ng/mL
[20] = target: T1, human NMI (N-myc Interacting protein); experiment: I-ELISA, hNMI coated 1 ug/mL; antibody 39.0625 ng/mL
[21] = target: T1, human NMI (N-myc Interacting protein); experiment: I-ELISA, hNMI coated 1 ug/mL; antibody 2.4414063 ng/mL
[22] = target: T1, human NMI (N-myc Interacting protein); experiment: I-ELISA, hNMI coated 1 ug/mL; antibody 156.25 ng/mL
[23] = target: T1, human NMI (N-myc Interacting protein); experiment: indirect ELISA, human NMI coated (repeats Table 1)
[24] = target: T1, human NMI (N-myc Interacting protein); experiment: I-ELISA, hNMI coated 1 ug/mL; antibody 2500 ng/mL
[25] = target: T1, human NMI (N-myc Interacting protein); experiment: sandwich ELISA; coating antibody 2.5 ug/mL, detection 94C4-biotin 0.5 ug/mL
[26] = target: T1, human NMI (N-myc Interacting protein); experiment: I-ELISA, hNMI coated 1 ug/mL; antibody 625 ng/mL
[27] = target: T1, human NMI (N-myc Interacting protein); experiment: indirect ELISA, human NMI coated; supernatant 1/2187
[28] = target: T1, human NMI (N-myc Interacting protein); experiment: I-ELISA, hNMI coated; lower end of the group's range, tied to 94C4 by Table 17

OD450 [1] [OD450] | ELISA OD [3] [OD] | ELISA OD [4] [OD] | OD450 [5] [OD450] | OD450 [6] [OD450] | ELISA OD [7] [OD] | ELISA OD [8] [OD] | ELISA OD [9] [OD] | OD450 [10] [OD450] | OD450 [11] [OD450] | ELISA OD [12] [OD] | ELISA OD [13] [OD] | ELISA OD [14] [OD] | EC50 [15] [ng/mL] | ELISA OD [16] [OD] | ELISA OD [17] [OD] | OD450 [18] [OD450] | OD450 [19] [OD450] | OD450 [20] [OD450] | OD450 [21] [OD450] | other results | Binder
2.15 | 3.45 | 2.48 | 0.41 | 1.97 | 3.29 | 0.528 | 3.32 | 1.18 | 0.065 | 0.237 | 2.97 | 1.07 | 1.22 | 3.45 | 3.39 | 0.115 | 0.217 | 0.67 | 0.081 | EC50 [2]: 70 ng/mL; OD450 [22]: 1.71 OD450; EC50 [23]: 1.22 ng/mL; OD450 [24]: 2.17 OD450; detection limit (sensitivity) [25]: 60 pg/mL; OD450 [26]: 2.08 OD450; ELISA OD [27]: 1.72 OD | B1
2.19 | 3.5 | 2.98 | 0.833 | 2.1 | 3.43 | 1.28 | 3.47 | 1.64 | 0.092 | 0.585 | 3.29 | 2.15 | 0.189 | 3.46 | 3.58 | 0.262 | 0.482 | 1.22 | 0.142 | EC50 [28]: 30 ng/mL; OD450 [22]: 1.93 OD450; EC50 [23]: 0.189 ng/mL; OD450 [24]: 2.17 OD450; OD450 [26]: 2.19 OD450; ELISA OD [27]: 2.48 OD | B2
